Test results published in patent publication US11351270B2, “Junctophilin-2 fragments and uses therefor” (University of Iowa Research Foundation, priority 2016, dated 2022).

Columns and labels:
HEK293T cells = assay: Subcellular localization by confocal imaging; assay type: cell-based; conditions: HEK293T cells and cardiomyocytes
Description: Immunofluorescence was done as described previously (Guo et al., 2015). A Zeiss confocal microscope LSM510 was used for recording cell images.
To Investigate the molecular mechanism of JP2NT nuclear importation, an in silico analysis (Sigrist et al., 2002) was performed. […] These domains are evolutionarily conserved among species (FIGS. 18B-C). […] Indicating this NLS is Indispensable for nuclear localization of JP2NT. A fusion protein containing mCherry and the bNLS peptide with the ARR was imported into nuclei (FIG. 16D).

RyR2 and Cav1.2 = assay: Coimmunoprecipitation with E-C coupling channels; assay type: binding, mouse; conditions: anti-HA immunoprecipitation
Source text: FIGS. 5A-H. JP2 truncations are nonfunctional in regulating Ca^2+ transients. A) An antibody against the HA tag was used to reveal the localization of adenoviral expression of tagged full-length JP2 and truncations, as indicated, in adult wild-type cardiomyocytes. All the three version of JP2 can be localized in the striated pattern. B) Full-length JP2 and JP2(1-565) forms complexes with RyR2 and Cav1.2 In vivo. An antibody against HA was used for immunoprecipitation […]. The RyR2 and Cav1.2 that were pulled down were detected by Western blot analysis. […] IB, immunoblot. C) Adenovirus-mediated expression of full-length JP2, FLAG-JP2(1-565)-HA, and JP2(566-end)-HA in JP2-KD) cardiomyocytes. D) Representative steady-state Ca^2+ transients under 1-Hz field stimulation. The fluorescence intensity (F) of Ca^2+ imaging was normalized to the baseline (FO). The red lines overlapping on Ca^2+ imaging show the profile of the moment of Ca^2+ transient firing on the scanning line in a point-by-point way. A straighter line means better synchronization of the Ca^2+ transients. Note that expression of full-length JP2, but not JP2 truncations, improves the amplitude and synchronization of Ca^2+ transients. E-G) Summary of Ca^2+ transient amplitude, index of desynchronization (mean absolute deviation of firing time), and duration of 50% decay (T5) (n=68, 70, 70, and 52 for Ad-Empty, Ad-JP2, […], and Ad-JP2(566-end), respectively). Only full-length JP2 Improves the amplitude, synchronization, and decay of Ca^2+ transients. H) Summary of SR Ca^2+ content, which was assessed by caffeine-induced SR Ca^2+ release (n=17, 17, 17, and 12 for Ad-Empty, Ad-JP2, Ad-JP2(1-565), and Ad-JP2(566-end), respectively). **, p<0.01 versus indicated groups; N.S., not significant.
Cleavage at the primary calpain proteolysis site (Arg-565/Thr-566) splits apart the C-terminal SR-binding TM domain and N-terminal plasma membrane-binding MORN domains of JP2. […]

[1] = system: cultured adult murine cardiomyocytes; assay: RT-qPCR in cultured cardiomyocytes; assay type: cell-based, mouse; conditions: compared with Ad-Empty infected cells
Description: RNA of cultured cardiomyocytes was extracted using RNAeasy (Qiagene). Myocardium RNA was extracted using Trizol. Total RNA was treated with DNASE-I to eliminate genomic DNA and then cleaned using RNA cleanup Kit (Qiagene).
Superscript II were used for Reverse Transcription of mRNA. A QUANT STUDIO 3 real-time PCR machine was used to run qPCR. The primers used in RT-PCR were: […]

MEF2C = molecular target: T1, MEF2C (Homo sapiens, UniProt Q06413); assay: Co-IP of Myc-tagged MEF2C and HA-tagged JP2NT in 293 cells; assay type: binding
T1 construct: expressed in transfected cells; host or cells: 293 cells
T1 sequence (Q06413 whole entry, species assumed): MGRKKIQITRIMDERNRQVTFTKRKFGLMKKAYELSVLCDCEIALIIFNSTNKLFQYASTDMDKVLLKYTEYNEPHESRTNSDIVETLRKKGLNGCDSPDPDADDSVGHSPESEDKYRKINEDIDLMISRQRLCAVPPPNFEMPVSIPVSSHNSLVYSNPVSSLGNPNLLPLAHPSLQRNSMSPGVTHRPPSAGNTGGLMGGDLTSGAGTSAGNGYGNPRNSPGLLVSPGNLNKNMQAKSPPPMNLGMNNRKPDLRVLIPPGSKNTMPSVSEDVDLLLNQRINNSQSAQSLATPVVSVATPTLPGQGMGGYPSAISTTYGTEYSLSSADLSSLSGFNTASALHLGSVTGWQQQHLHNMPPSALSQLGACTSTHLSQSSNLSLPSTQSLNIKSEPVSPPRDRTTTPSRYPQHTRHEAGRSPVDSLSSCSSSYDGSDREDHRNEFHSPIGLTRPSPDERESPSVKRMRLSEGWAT
Source text: The MEF2 family, master regulators of hypertrophic genes in cardiomyocytes, binds to the A/T enriched consensus sequence (C/TTA(A/T)4TA G/A), which shares the same core sequence with TATA box. Thus, it was hypothesized that JP2NT directly interacts with MEF2 binding sites.

cardiac hypertrophy = assay: Angiotensin-induced cardiac hypertrophy in JP2NT OE mice; assay type: in vivo, mouse
Description: A transgenic mouse line with cardiac specific overexpression of an exogenous protein sequence corresponding to JP2NT was prepared. JP2NT (JP2(1-565)) transgenic mice were generated based on a tet-off system. The Flag and HA tagged JP2NT cDNA was cloned downstream of tet-operated alpha-MHC promoter, enabling the cardiac specific and conditional expression of JP2NT (FIG. 9A). The plasmid (αMHC-JP2NT) was delivered by pronuclear injection into fertilized eggs to make transgenic founders. The transgenic mouse lines were backcrossed to C57 background for 9 generations. αMHC-JP2NT mice have been crossed with αMHC-tTA mice to generate double transgenic αMHC-tTA-JP2NT mice (noted as JP2NT OE mice). This allows for inducible and cardiac-specific expression of JP2NT, in which tTA binds to tet-operon and activates transcription of JP2NT. Thus, the expression and nuclear localization of JP2NT in transgenic mice have been confirmed.

[2] = system: MEF2C-mediated transcriptional activity; assay: MEF2 luciferase reporter assay; assay type: cell-based; conditions: 293 cells co-transfected with MEF2C and PMEF2-firefly, relative to PSV40-Renilla
Description: Firefly and Renilla reporter plasmids and JP2NT variants were co-transfected into HEK293 cells. The protein of the cells was harvested 48 hours after transfection. Promega dual luciferase system was used to evaluate the luciferase activity.
To examine whether JP2NT regulates MEF2-mediated transcription, a luciferase reporter system with firefly cDNA driven by the desmin enhancer-derived MEF2 binding site (PMEF2-firefly) (Naya et al., 1999) was used.

[3] = system: RNA polymerase II (RPB1) and TATA-box binding protein (TBP); assay: Crosslinking-reversal co-IP in 293T cells; conditions: JP2NT-transfected 293T cells
Description: Cells were first crosslinked by 1% formaldehyde for 10 minutes at RT before quenching by 0.75 M Tris. After washing with PBS, cells were lysized using RIPA buffer and sonication was applied to breakdown chromatin and shear DNA. Anti-HA resin (sigma) was used to pull down HA tagged protein complexes. The pulled-down protein complexes were boiled at 95° C. for 10 minutes to reverse the formaldehyde induced crosslinking between proteins. Western blot was used to assay the presence of bait and prey proteins.
TBP specifically binds to TATA boxes, eukaryotic core cis-regulatory elements localized at transcription start site. […] This interaction was abrogated by mutation of the TATA box elements (FIGS. 11E&G and 17B). It was concluded that JP2NT is a DNA binding protein, binding to consensus TATA box represented as TATAA(A/T) or TATATA (FIG. 11F).

B1: JP2NT: shorter form of Junctophilin-2 including the first 565 amino acids of N-terminus of JP2 (protein, UniProt Q9BR39 1-565, looked up, fragment)
chain: MSGGRFDFDDGGAYCGGWEGGKAHGHGLCTGPKGQGEYSGSWNFGFEVAGVYTWPSGNTFEGYWSQGKRHGLGIETKGRWLYKGEWTHGFKGRYGIRQSSSSGAKYEGTWNNGLQDGYGTETYADGGTYQGQFTNGMRHGYGVRQSVPYGMAVVVRSPLRTSLSSLRSEHSNGTVAPDSPASPASDGPALPSPAIPRGGFALSLLANAEAAARAPKGGGLFQRGALLGKLRRAESRTSVGSQRSRVSFLKSDLSSGASDAASTASLGEAAEGADEAAPFEADIDATTTETYMGEWKNDKRSGFGVSERSSGLRYEGEWLDNLRHGYGCTTLPDGHREEGKYRHNVLVKDTKRRMLQLKSNKVRQKVEHSVEGAQRAAAIARQKAEIAASRTSHAKAKAEAAEQAALAANQESNIARTLARELAPDFYQPGPEYQKRRLLQEILENSESLLEPPDRGAGAAGLPQPPRESPQLHERETPRPEGGSPSPAGTPPQPKRPRPGVSKDGLLSPGAWNGEPSGEGSRSVTPSEGAGRRSPARPATERMAIEALQAPPAPSREPEVALYQG
modifications: GST or adenoviral forms
notes: shorter form of Junctophilin-2 including the first 565 amino acids of N-terminus of JP2
nuclear localization / nuclear importation (HEK293T cells): highly enriched in nuclei
interaction with RyR2 and Cav1.2 (RyR2 and Cav1.2): interact
cardiac hypertrophy markers ANP and BNP (mRNA) [1]: not altered
mRNA levels of KLF4, KLF6, Myc, TGFβR1, NFKBIA, FOXO1, PI3KR1 et al [1]: significantly decreased
interaction with MEF2C (MEF2C): interaction
Angiotensin-li induced cardiac hypertrophy (cardiac hypertrophy): resistant
MEF2-responsive luciferase signal [2]: attenuated the MEF2-responsive signal in a dose-dependent manner
association with RNA polymerase II (RPB1) and TBP [3]: associates
